# Data taken from the supplement of paper PMC9732359.
# ± gives the uncertainty stated by the source.
# Assay: protein stability index of a GFP-peptide fusion (yeast GPS) (PSI 1-4); higher = more stable; sorted into four equal gates, so the index is relative within each strain
# Method in brief: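 Yeast carrying a pooled library were grown to mid-log phase in leucine-free medium. Each library plasmid expresses Cherry and has a tiled 17-residue yeast protein peptide fused downstream of GFP. Cells were sorted into four equal gates by GFP/Cherry ratio, and plasmids from each gate were PCR-amplified, Illumina-sequenced and assigned to strains by barcode. Summing, across gates, the read frequency times the gate number gave each peptide's protein stability index.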
Sequence,protein stability index (doa10∆),protein stability index (pdr5∆),protein stability index (san1∆),protein stability index (ubr1∆)
KNRSNRKRFHSQSKGTV [YOR098C/NUP1],3.21 ± 0.18,3.11 ± 0.18,2.89 ± 0.16,3.26 ± 0.19
KNSFQQALQMKAMDIPI [SWP82],1.29 ± 0.035,1.55 ± 0.055,1.37 ± 0.064,1.59 ± 0.038
KPENKTDKVSLSQPVSA [SIR4],2.81 ± 0.055,2.68 ± 0.052,2.49 ± 0.063,2.14 ± 0.037
KPFGSAKSDETKQASSF [YLR335W/NUP2],,2.09 ± 0.12,1.92 ± 0.15,1.06 ± 0.13
KPGSIDAISQVINIAKA [FAS1],2.14 ± 0.052,2.87 ± 0.061,2.61 ± 0.069,2.95 ± 0.033
KPIQNGEIIDISAFTQF [ARP9],3.02 ± 0.098,2.76 ± 0.085,2.64 ± 0.091,2.98 ± 0.061
KPLKKGSADIGASVISL [SIR4],3.09 ± 0.068,3.14 ± 0.055,3.05 ± 0.038,3.06 ± 0.04
KPPISDSVFSFGPKKEN [YLR335W/NUP2],2.82 ± 0.065,2.81 ± 0.057,2.75 ± 0.046,2.94 ± 0.039
KPSKPFNVDDVLKFTFT [MED8],3.1 ± 0.061,2.83 ± 0.051,3.03 ± 0.034,2.74 ± 0.039
KPVKVALIFIFFAYFIG [YJL039C/NUP192],1.66 ± 0.042,1.4 ± 0.037,1.38 ± 0.064,1.4 ± 0.027
KPYDINVVLVTNDRLNR [DIS3],1.69 ± 0.085,2.92 ± 0.098,2.96 ± 0.094,3.08 ± 0.094
KPYYFSNNHKLSESDKK [RPN12],1.23 ± 0.063,1.47 ± 0.077,1.33 ± 0.13,1.22 ± 0.042
KQFFQMTPLLVNCLELL [PCI8],1.4 ± 0.034,1.32 ± 0.034,1.26 ± 0.067,1.23 ± 0.025
KQGRIKNATEELLRLAN [CSN12],3.15 ± 0.17,3 ± 0.13,2.6 ± 0.14,3.36 ± 0.22
KQIVHDSGRGAPLAKVV [RPL2A],2.16 ± 0.22,2.16 ± 0.18,,2.41 ± 0.17
KQLQQPKSSPLKKNNYN [SIR4],3.03 ± 0.089,2.98 ± 0.068,3.1 ± 0.039,3.07 ± 0.039
KQQGVGLPTDAYVAIEQ [RPN8],2.78 ± 0.083,2.7 ± 0.15,2.89 ± 0.21,3.19 ± 0.1
KREKRVFLKHSLSIKLA [RPN6],2.58 ± 0.083,3.22 ± 0.09,2.75 ± 0.086,2.81 ± 0.094
KRIKPNTEITQKSSKEN [ECM29],2.81 ± 0.081,2.9 ± 0.074,2.98 ± 0.067,3.14 ± 0.056
KRKCGHTNQLRPKKKLK [RPL40A],2.76 ± 0.038,2.84 ± 0.036,2.942 ± 0.028,2.994 ± 0.029
KRKSAQEPELSLDQGDA [SMC4],3.23 ± 0.1,3.19 ± 0.1,3.09 ± 0.17,3.39 ± 0.099
KRLGPKRANNIRKFFGL [RPS6A],3.52 ± 0.077,3.56 ± 0.071,3.25 ± 0.038,3.46 ± 0.045
KRNGDEVYTLVDSQGLP [ARP7],3.35 ± 0.17,3.34 ± 0.11,2.98 ± 0.14,3.21 ± 0.097
KRPNNKTLEKLESTIAE [IRR1],3.62 ± 0.14,3.35 ± 0.1,3.01 ± 0.096,3.31 ± 0.14
KRPYESSRLDAELKLAG [RPS9A],3.24 ± 0.088,3.05 ± 0.065,2.81 ± 0.072,2.96 ± 0.14
KSAYANTEKDYKMVQEQ [SMC2],2.95 ± 0.053,3.02 ± 0.066,3.19 ± 0.04,3.21 ± 0.049
KSDDDDHTVDEIDHVEY [SRB8],2.45 ± 0.069,2.46 ± 0.08,2.98 ± 0.1,2.91 ± 0.048
